The text below walks through data of US20210292393A1.

Common to all, as to settings: remark: other sources report otherwise
Assay [1] concerns the target SARS-CoV-2 full length spike protein (wild type), expressed on the surface of transiently transfected CHO cells (SARS-CoV-2), P0DTC2.
Assay [2] addresses SARS-CoV-2 spike protein (SARS-CoV-2), P0DTC2.
For assay [3], the target named is SARS-CoV-2 full length spike protein (wild-type) (SARS-CoV-2), P0DTC2.
The target of assay [4] is SARS-CoV-2 full length spike protein, wild type, expressed on the surface of transiently transfected CHO cells (SARS-CoV-2), P0DTC2.
Assay [5] addresses SARS-CoV-2 full length spike protein (wild type), conjugated to beads (SARS-CoV-2), P0DTC2.
Assay [6] concerns the target SARS-CoV-2 spike (S) protein, full length, wild type (SARS-CoV-2), P0DTC2.

Values joined by “and” are separate entries in the source; they are usually repeats but may differ in a detail not shown here. Identical values can stand only once.

Usually Kd stands for a measure of binding affinity in units of concentration. Read a high Kd as lower affinity. As a reminder, the koff is a measure of how fast the partners let go of each other. As usually defined, the kon is the rate constant with which the complex forms. A lower kon goes with slow association.

B1: antibody 472 (antibody, V domains shown)
VH: EVQLVESGGGLIQPGGSLRLSCAASGFTVSSNYMSWVRQAPGKGLEWVSVIYSGGTTHYADSVKGRFTISRDNSKNTLYLQMNSLRAEDTAVYYCANYGMDVWGQGTTVTVSS
VL: SYELTQPSSVSVSPGQTARITCSGDVLAKKYARWFQQKPGQAPVLVIYKDSERPSGIPERFSGSSSGTTVTLTISGAQVEDEADYYCYSAADKVFGGGTKLTVL
Take B1: the median fluorescence intensity, fold over isotype control (fold over isotype) in assay [1] is 0.91. Further, in assay [2], the Kd is under 0.469 nM, the koff is under 1e-05 s⁻¹ and the kon turned out to be 21300 M⁻¹ s⁻¹.

B2: antibody 452 (antibody, V domains shown)
VH: QVQLVESGGGLVKPGGSLRLSCAASGFTFSDYYLSWIRQAPGKGLEWVSYISSSGSNIYYADSVKGRFTISRDNAKNSLYLQMNSLRADDTAVFYCARAGRYCSGGSCRVEYFQHWGQGTLVTVSS
VL: SYELTQPPSVSVSPGQTARITCSGDALPKQYAYWYQQKPGQAPVLVIYKDNERPSGIPERFSGSSSGTTATLTISGVQAEDEADYYCQSADSSGTVVFGGGTKLTVL
On to B2, for which the median fluorescence intensity, fold over isotype control (fold over isotype) in assay [1] turned out to be 26.8. The Binding to Wild-Type SARS-CoV-2 (Bead Assay) in assay [3] came out at 854.

B3: antibody 390 (antibody, V domains shown)
VH: EVQLVESGGGLIQPGGSLRLSCAASGFTVSSNYMSWVRQAPGKGLEWVSIIYSGGSTYYADSVKGRFTISRDNSKNTLYLQMNSLRAEDSAVYSCATTMVRGLIISYYYGMDVWGQGTTVTVSS
VL: QSALTQPASVSGSPGQSITISCTGTSSDVGGYNYVSWYQQHPGKAPKLMIYEVSNRPSGVSNRFSGSKSGNTASLTISGLQAEDEADYYCSSYTSSSTLVFGGGTKLTVL
With B3, in assay [4], the median fluorescence fold over isotype control (fold over isotype) was determined as 0.73. In assay [2], this molecule returned a Kd of 0.153 nM, a koff of 1.97e-05 s⁻¹ and an association rate constant (kon) of 129000 M⁻¹ s⁻¹. Also, the binding signal, bead assay (fold over isotype) in assay [5] is 637 and 341 and 318.

B4: anti-SARS-CoV-2 antibody 495 (antibody, V domains shown)
VH: QITLKESGPTLVKPTQTLTLTCTFSGFSLSTSGVGVGWIRQPPGKALEWLALIYWDDDKRYSPSLKSRLTITKDTSKNQVVLIMTNMDPVDTATYYCAHRDSSSWFDLDAFDIWGQGTMVIVSS
VL: QSVLTQPPSVSEAPRQRVTISCSGSSSNIGNNAVNWYQQLPGKAPKLLIYYDDLLPSGVSDRFSGSKSGTSASLAISGLQSEDEADYYCAAWDDRLNGPVFGGGTKLTVL
As for B4, the median fluorescence fold over isotype (fold over isotype) in assay [6] is 1090 and 384 and 530.

B5: anti-SARS-CoV-2 antibody 485 (antibody, V domains shown)
VH: QVQLQESGPGLVKPSGTLSLTCAVSGASISSSNWWSWVRQPPGKGLEWIGEIYHSGSTNYNPSLKSRVTISVDKSKNQFSLKLSSVTAADTAVYYCARRSYYGSGSYYPFDYWGQGTLVTVSS
VL: QSALTQPASVSGSPGQSITISCTGTSSDVGSYNLVSWYQQHPGKAPKLMIYEGRKRPSGVSNRFSGSKSGNTASLTISGLQAEDEADYYCCSYAGSSTYVFGTGTKVTVL
In assay [6], B5 showed a median fluorescence fold over isotype (fold over isotype) of 510.

B6: anti-SARS-CoV-2 antibody 499 (antibody, V domains shown)
VH: EVQLVESGGGLVKPGGSLRLSCAASGFTFSSYSMNWVRQAPGKGLEWVSSISSSSSYIYYADSVKGRFTISRDNAKNSLYLQMNSLRAEDTAVYYCARAPAGIVVGPDYWGQGTLVTVSS
VL: NFMLTQPHSVSESPGKTVTISCTGSSGSIASNYVQWYQQRPGSAPTTVIFEDNQRPSGVPDRFSGSIDSSSNSASLTISGLKTEDEADYYCQSYHSSNPHVVFGGGTKLTVL
Turning to B6, the median fluorescence fold over isotype (fold over isotype) in assay [6] was 1120 and 386 and 432.
